Reference: paper PMC5537299, “Spatial structure of TLR4 transmembrane domain in bicelles provides the insight into the receptor activation mechanism” (Scientific Reports, 2017)
“And” between values parts separate entries of the source, which are not always exact repeats. Equal entries are not always repeated. Blank lines part the entries; values can stand above or below the molecule they belong to.

Experiments:
[1] = biological target: TLR4-TMICL (transmembrane domain and whole intracellular linker region of human TLR4, residues 624-670) (human); test: NMR titration; 1H,15N-TROSY spectra at various lipid(detergent)-to-protein ratios (LPR) in DPC micelles; populations of the states from cross-peak intensities; 45 °C; 20 mM phosphate buffer pH 6.0-6.5; monomer, dimer and higher oligomer
[2] = biological target: His657 (UniProt position 657, …); test: NMR; conditions: 45 °C (Methods: all NMR experiments), supplementary figure captions for the same samples state 40 °C, not stated (20 mM phosphate, no added salt mentioned), Monomeric, helical, membrane-mimetic-embedded TLR4-TMICL in anionic bicelles
[3] = biological target: the molecule itself; test: NMR titration; 1H,15N-TROSY spectra at various lipid(detergent)-to-protein ratios (LPR) in DPC micelles; populations of the states from cross-peak intensities; 45 °C; 20 mM phosphate buffer pH 6.0-6.5; monomer, dimer and higher oligomer

stoichiometry N [1]: 2 and 3
Molecule: TLR4-TMICL (transmembrane domain and whole intracellular linker region of human TLR4, residues 624-670) (domain or fragment)

B1: Toll-like receptor 4 transmembrane domain plus intracellular linker fragment (TLR4-TMICL) (Homo sapiens) (peptide)
chain: MNITSQMNKTIIGVSVLSVLVVSVVAVLVYKFYFHLLMLAGCIKYGRG
pKa [2]: 6.16 ± 0.02

B2: TLR4-TM (transmembrane domain of human TLR4 with the truncated ICL region, residues 624-657) (domain or fragment)
chain: MNITSQMNKTIIGVSVLSVLVVSVVAVLVYKFYFH
notes: not part of the stated range 624-657; human TLR4, predicted (UniProt) transmembrane and several juxtamembrane residues 624-657; 35 residues as printed; uniformly 13C/15N-labelled for NMR; cloned into pET22b by NdeI and HindIII; also called TLR-TM; source: continuous exchange cell-free expression (S30 extract of E. coli Rosetta(DE3)pLysS), as a precipitate; purified by size-exclusion …
stoichiometry N [3]: 2 and 3
